Laboratory results from patent US20120289454.

Experiments:
[1] = test system: GGhyrfk-amide (synthetic); conditions: Cu complex; Vmax 2.86 RFU/min
[2] = test system: GGHYrFK-amide (synthetic); test: cleavage_in_vitro; conditions: Cu complex; KM 0.85 µM; turnover number 32; 1 mM ascorbate, 1 mM H2O2
[3] = test system: GGHYrFK-amide (synthetic)

Sequence: GGCAGAAAGCGUCUAGCCAUGGCGUUAGUAUGCC [HCV IRES SL IIb RNA]
- Kd [1]: 6.09 µM
- activity [2]: 0.53 min-1 (kcat)
- Kd [3]: 0.044 µM
